Test: soluble on expression in E. coli; label from the status in PepcDB or PDB records

YTDYEERRLIHEVPIIVPRGTGKTTLGSAIAEVGQIIDGEWGADIQLLAYSREQAGYLFNASRAMLSNEESLLHYMREADILRSTKQGILYETTNSLMSIKTSDYESLDGTNAHYNIFDEVHTYDDDFIKVVNDGSSRKRKNWITWYISTNGTKRDKLFDKYYNIWVDILDDKIINDSVMPWIYQLDDVSEIHDPDMWQKAMPLLGITTEKETIARDIEMSKNDPAQQAELMAKTFNLPVNNYLAYFSNEECKGWSDKFDESLFVGDDERNARCVIGIDLSDVNDICSISFMVVRGEERHYLNKKFMPRHTIETLPKELRDKYTEWELSGMLHVHELDYNDQAYIFEELRQFMSDNRILPVAVGYDRYNARELIRLFNDYYGDICHDIPQTVKSLSNPLKVYKEKAKMGKIIFDDPVATWNHANVRVKIDANNNIFPNKEKAKEKIDVFASQLDAFICYENFKEDLSYYFD
soluble on expression in E. coli: not soluble

— the DeepSol protein solubility set
